Laboratory results taken from the supplement of paper PMC9170038.

The sequences below were run on MS2 coat protein (assay: apparent KD of MS2 coat protein, switch OFF state (with FMN for OFF switches, without FMN for ON switches); designed switch direction (-1 OFF switch, 1 ON switch): -1; higher = weaker reporter binding). Conditions: FMN input: 0 or 200 uM; Eterna round: R93 (includes R88 designs).
How it was run: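 With or without constant ligand, designed RNA switches in 100 mM Tris-HCl pH 7.5, 80 mM KCl and 4 mM MgCl2 were titrated with SNAP-549-labelled MS2 coat protein. Concentrations went up in twofold steps from 0.7 or 1.5 nM to 3 µM. The switches had been transcribed on-chip from Illumina sequencing clusters, and apparent KD is the per-design median of normalised cluster binding-curve fits.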

| Sequence | apparent KD of MS2 coat protein |
| --- | --- |
| AAGAACAGAGGAUAUACAUGAAAGAAAGAAAAGAAAAGAAAACAUGAGGAUCACCCAUGUAGAAGGCUGAAGAA [EteRNA is fun!] | 25.1 nM |
| AAAAAACAUGAGGAUCACCCAUGUGAGGAUAUCGGAAAAGGAAAAAAAAAAAAGAAGACGAGAAGGCACAAAGA | 28.6 nM |
| AAGAAGUCAGGAUAUGCGAAUCGAUAAGAACGUCAAAGAAAGCAGAAGGGACAUGAGGAUCACCCAUGUAAAGA [Opal 39] | 27.6 nM |
| AAGUUGCUAGGAUAUACUUGGGCAACAAAUAAACUAAUAUAACAUGAGGAUCACCCAUGUAGAAGGAGCAGAAA [JR_Exc002_Sub206] | 34.9 nM |
| AACAAACAUGAGGAUCACCCAUGUCAGGAUAUGCAAACAACAAACAACAAACAACAAAGCAGAAGGGACAACAA [e1-3] | 25.1 nM |
| AGUAUGCGAGGAUAUACAUGAGGAUCACCCAUGUGAGAGAUAAAAGUGAGAAAGACAAGUAGAAGGCGCGUACA [JL Lego Mod 23] | 354 nM |
| AAAAAGGGAGGAUAUACAUGAGGAUCACCCAUGUAAAAAAAAAAAGGAGGGAGGGAAGGUAGAAGGCCCAAAAA [Excls3-IIi] | 24.6 nM |
| AACUAACAUGAGGAUCACCCAUGUCAGGAUAUGCAAAGAACGAUCGAACGAACGAUAAGCAGAAGGGACAAAAA [Amethyst 96] | 42.1 nM |
| AAGCACAGAGGAUAUACAUGGGUAAAAAAAAAAAAAAAAAAACAUGAGGAUCACCCAUGUAGAAGGCUGUGCAA | 24.3 nM |
| AAAACACAUGAGGAUCACCCAUGUGAGGAUAUGCGAAAAAAAAAAAAAAAAAAAAAACGCAGAAGGCACAUAAA [jn_teaneck] | 43.5 nM |
| AGCUAGUGAGGAUAUACGAACAUGUCAAAAGACGUGAAAAAACAUGAGGAUCACCCAUGUAGAAGGCACUAGCA [Mat - Exclusion 2 - JL-Eli mod - D56] | 16.9 nM |
| ACGAAGAGAGGAUAUACGAACAUGUCAAAAGACGUGAAGGGACAUGAGGAUCACCCAUGUAGAAGGCUCUUCGA [Mat - Exclusion 2 - JL mod - D10] | 167 nM |
| AGUUGGCGAGGAUAUACAUGAGGAUCACCCAUGUAAAAUAAAUAAAAAAUAAAGGGAAGUAGAAGGCGCUGACA [73%, Moding Norbert Elias, 15] | 77 nM |
| AAAAAACAUGAGGAUCACCCAUGUGAGGAUAUGCAAAACCCAUAUAAAAAGGGAAAAAGCAGAAGGCACAAAAA [Starry Exclusion 1.3 (wbt round 1 mod)] | 55.8 nM |
| AAGCUGCUAGGAUAUACAGCAGGGAUUCGAAAACCCACGAAACAUGAGGAUCACCCAUGUAGAAGGAGUAGGGA [Attixe] | 15.2 nM |
| GAAAAGUCAGGAUAUACAGAAAAAAAAACGAAAAAAAAUCUGUAGAAGGGACAUGAGGAUCACCCAUGUAAAAG [Mat - Exclusion 4 - Mayanna - D123] | 38.7 nM |
| AAGACUACAGGAUAUACAUGAGGAUCACCCAUGUAACUGACAAGUAGAGGACGGAGAAGUAGAAGGGUAGUCAA [Ruby 35] | 26.7 nM |
| AAAAAUGGAGGAUAUACAUGAGGAUCACCCAUGUGAAACAAAACAAAACACAAAAAAAGUAGAAGGCCAAAAAA [Gilly Gone Silly 4 - Jieux - Exclusion 3] | 38.2 nM |
| GAUUAGUGAGGAUAUACAUGAGGAUCACCCAUGUGUAAAAAAAAACGCAAAAAAGAAUGUAGAAGGCACUAAAG [Mat - Exclusion 3 - Mayanna mod - D103] | 31.4 nM |
| AAGAGUACAGGAUAUACAUGAAAAGAGUCGAAAGACUCAAAACAUGAGGAUCACCCAUGUAGAAGGGUACUCAA [Hyphema Seclusion Mod 62% 2] | 98.9 nM |
| AUAAAGUAAGGAUAUGCGAAUAAAUAAGUAGACGAAUGAAAGCAGAAGGUACAUGAGGAUCACCCAUGUAAGAA [Ex 4 Tesla 2] | 19 nM |
| AAAAAACAUGAGGAUCACCCAUGUGAGGAUAUCUGAAAAAAAAAAAAAAAAAAGAAAAAGAGAAGGCGCAAAGA [Ex 1 #2] | 35.1 nM |
| CAUAAGCAAGGAUAUACAUGAGGAUCACCCAUGUAGCUUUGCUUCGUGGGCACAACAUGUAGAAGGUGCGAAAA [Leceedon] | 13.9 nM |

| Sequence | apparent KD of MS2 coat protein |
| --- | --- |
| AAAAGGUCAGGAUAUGCCCACCAGGAAAAAAAACCAGGUGGGCAGAAGGGACAUGAGGAUCACCCAUGUAAAAA [Excls4-I] | 107 nM |
| AGCAAGAGAGGAUAUACAUAGGAAAAAAAAGUUAGAUCCCUACAUGAGGAUCACCCAUGUAGAAGGCUCUGGCA [Ex2 Design 153: Sub-opt 17] | 37.1 nM |
| AGCUAGUCAGGAUAUACGAGAAUGUCAAAAGACGUGAAGGGACAUGAGGAUCACCCAUGUAGAAGGGACUAGCA [Diamond 23] | 208 nM |
| AAGUUACAUGAGGAUCACCCAUGUGAGGAUAUGUGUAUCCCUAAAAAAGUGUGGGACCACAGAAGGUACUUGGA [Mod 2 of Atanri by ViennaUCT, Round 1] | 44.5 nM |
| AAGAACUCAGGAUAUGCUAAAGAAAUAAAAAUAAAUAAAGAACAUGAGGAUCACCCAUGUAGAAGGGAGAAGAA [Merkawre Sobekhotep VII] | 46.2 nM |
| CUCUUGUGAGGAUAUGUAAGAAAAGAAAAGAAAGAAAAGAAACAGAAGGCACAUGAGGAUCACCCAUGUAAGAA [EteRNA is fun!] | 45.9 nM |
| CCUAUGUCAGGAUAUCAGUAGUAAAAAAAAAAAAUUACUACUGAGAAGGGACAUGAGGAUCACCCAUGUCACUU [EX4 311: Super Stable 11] | 18.8 nM |
| AAAAAGUUAGGAUAUACAUGAGGAUCACCCAUGUACAUAAAUGGAGAAAAAAACAGUAGUAGAAGGGACAAAAA [EX2 Malc#11] | 22.2 nM |
| AAAAAACAUGAGGAUCACCCAUGUGAGGAUAUGUAAAAUAAAAUAAAAAUAAAGAAAAGCAGAAGGUAUAUGAA [Amethyst 65] | 23.2 nM |
| AGAAUACAUGAGGAUCACCCAUGUAAGGAUAUGUGAAGAAAAAGAAAAGAAAAGAAACACAGAAGGUACAAAAG [EX 1 May 18] | 65.8 nM |
| AGUUGGCGAGGAUAUACAUGAGGAUCACCCAUGUAAAAUAAAUAAAAAAAGGGAGAAAGUAGAAGGCGCUGACA [73%, Moding Norbert Elias, 12] | 193 nM |
| CUCAUGUCAGGAUAUCAGUAGUAAAAAAAAAAAAUUACUACUGAGAAGGGACAUGAGGAUCACCCAUGUCCCUU [EX4 301: Super Stable 1] | 16.7 nM |
| GAAAAGUGAGGAUAUACAGAUAAAAAAACGAAAAAAAAUCUGUAGAAGGCACAUGAGGAUCACCCAUGUAAAAA [Mat - Exclusion 4 - Mayanna - D106] | 29.8 nM |
| AACUGACAUGAGGAUCACCCAUGUCAGGAUAUGACUUGAUAGAAAAUAAAAUAUCAUGUCAGAAGGGACAUGAA [Design 61: Sub-opt KB] | 12.4 nM |
| GGCACUGUAGGAUAUACAUGAACAAUUGGCAUCCUCAGUCCACAUGAGGAUCACCCAUGUAGAAGGAUAGAAAA [Besorees] | 91.1 nM |
| AGCUAGUCAGGAUAUACGGACAUGUCAGGAGACGUGAAGGGACAUGAGGAUCACCCAUGUAGAAGGGACUAGCG [74%, Web mod - With 4 more G's] | 106 nM |
| UUAGAACAUGAGGAUCACCCAUGUGAGGAUAUGCAAUACUAAAAUUAAGAUAAUUAUAGCAGAAGGCACGUAGU [JR_EXc001_Sub804] | 40.9 nM |
| UCCAGACAUGAGGAUCACCCAUGUCAGGAUAUCUACAGAACCUCAUGUAAAAAACUGUAGAGAAGGGAUAUGAA [Design 97: Pseudoknot G] | 16 nM |
| AAUAAUGCAGGAUAUACUAAAGAAAUGAAAAGAAAUAAAGAACAUGAGGAUCACCCAUGUAGAAGGGCAAAUAA [Yakareb] | 29.3 nM |
| AAAAAACAUGAGGAUCACCCAUGUGAGGAUAUGCAAAAAAAAAAAAAAAAAAAAAAAAGCAGAAGGCGCAAAAA [4 GC Strong] | 38.9 nM |
| GGUUGACGAGGAUAUACAUGAGGAUCACCCAUGUGAGAGAAAAAAGUGAGAAAGAAAAGUAGAAGGCGUUGACG [salish99-ex3-59] | 91.8 nM |
| UCAGGUGGAGGAUAUACAGCUCGAUCCUGGAAUAAAACGGCACAUGAGGAUCACCCAUGUAGAAGGCCACAAAA [Texeussoat] | 55.1 nM |
